Assay results reported in patent US20210101954A1 (EUREKA THERAPEUTICS, published 2021).

Target: T1, CD19 (human, UniProt P15391 20-556)
T1 construct: whole, on cells; also called CD19 on NALM6, Raji, K562-CD19 and K562-CD19/CD22 cells
T1 sequence (looked up): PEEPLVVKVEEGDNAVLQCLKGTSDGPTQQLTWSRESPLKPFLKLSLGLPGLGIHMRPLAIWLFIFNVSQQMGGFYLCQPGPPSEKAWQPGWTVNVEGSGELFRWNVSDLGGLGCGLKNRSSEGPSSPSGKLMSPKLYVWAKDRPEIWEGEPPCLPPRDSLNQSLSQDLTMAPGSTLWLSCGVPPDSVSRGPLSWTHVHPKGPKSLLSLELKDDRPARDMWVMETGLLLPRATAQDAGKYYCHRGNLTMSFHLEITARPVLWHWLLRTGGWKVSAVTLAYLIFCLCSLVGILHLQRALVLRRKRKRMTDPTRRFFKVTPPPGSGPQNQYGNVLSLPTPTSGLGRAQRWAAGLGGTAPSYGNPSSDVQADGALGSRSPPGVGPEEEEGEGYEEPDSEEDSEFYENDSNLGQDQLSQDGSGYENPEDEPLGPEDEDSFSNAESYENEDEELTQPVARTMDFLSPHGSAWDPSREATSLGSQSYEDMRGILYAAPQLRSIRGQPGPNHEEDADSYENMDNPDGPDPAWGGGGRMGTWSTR
Test: told from antigen-specific IFN-γ release of transduced T cells on CD19+ and/or CD22+ cell lines
From the text: Primary T cells were mock-transduced or transduced with a lentiviral vector encoding the anti-CD19 anti-CD22 caTCR-7-2a construct. The transduced T cells were mixed with K562 (CD19 CD22 double negative), K562-CD22 (K562 transduced with CD22), K562-CD19 (K562 transduced with CD19), Raji (which expresses both CD19 and CD22), or Raji CD19 K/O (Raji with CD19 knocked out) cells at an effector-to-target ratio of 2.5:1. T-cells secrete IFN-γ when activated by TCR engagement with target ligand. The cytokine release levels of IFN-γ were measured and used as an indicator of the receptor's signaling potential (the higher levels, the higher the receptor's signaling potential and cytotoxic T cell activity). Cytokine concentrations were measured after 16 hours of co-culture using the Magpix multiplex system (Luminex) with the Bio-plex Pro Human Cytokine 8-plex Assay (BioRad).
T cells expressing the anti-CD19 anti-CD22 caTCR-7-2a construct specifically activated IFN-γ secretion when incubated with K562 expressing either CD19 or CD22 antigens. […] In vitro killing

- binding result: binds
B1: anti-CD19 anti-CD22 caTCR-7-2a (other)
chain 1: DIQLTQSPSSLSTSVGDRVTITCQASHDIRNYLNWYQQKPGKAPNLLIYAASNLQTGVPSRFSGRGSGTDFTLTISSLQPEDIATYYCQQYDGLPLTFGQGTRLEIKRGGGGSEVQLVQSGAEVKKPGESLKISCKGSGYSFTSYWIGWVRQMPGKGLEWMGIIYPGDSDTRYSPSFQGQVTISADKSISTAYLQWSSLKASDTAMYYCARQVWGWQGGMYPRSNWWYNLDSWGQGTLVTVSSASTKGPSVFPLAPSSKSTSGGTAALGCLVKDYFPEPVTVSWNSGALTSGVHTFPAVLQSSGLYSLSSVVTVPSSSLGTQTYICNVNHKPSNTKVDKRVEPKSCEVKTDSTDHVKPKETENTKQPSKSCHKPKAIVHTEKVNMMSLTVLGLRMLFAKTVAVNFLLTAKLFFL
chain 2: QVQLVESGGGLVQPGGSLRLSCAASGFTFSNYAMSWVRQAPGKGLEWVSSISGSGGSTYYADSVKGRFTISRDTSKNTLYLQMNSLRAEDTAVYYCARYGSAAWMDSWGQGTLVTVSSGGGGSLPVLTQPPSVSVAPGKTARITCGGNNIGSKSVHWYQQKPGQAPVLVVYDDSDRPSGIPERFSGSNSGNTATLTISRVEAGDEADYYCQVWDSSSDYVVFGGGTKLTVLGQPKANPTVTLFPPSSEELQANKATLVCLISDFYPGAVTVAWKADGSPVKAGVETTKPSKQSNNKYAASSYLSLTPEQWKSHRSYSCQVTHEGSTVEKTVAPTECSPIKTDVITMDPKDNCSKDANDTLLLQLTNTSAYYMYLLLLLKSVVYFAIITCCLLRRTAFCCNGEKS
notes: Bispecific chimeric antibody-TCR construct expressed on transduced primary T cells
